In US11851680B2, “Genetically-modified immune cells comprising a microRNA-adapted shRNA (shRNAmiR)” (Precision Biosciences, Inc., priority 2019, dated 2023):

Columns and labels:
[1] = system: TGFBR2; assay: TGFBR2 surface expression (knockdown or knockout) on T cells by flow cytometry; assay type: cell-based, human; details: for TGFBR2 knockout frequency, percent of cells in the culture: 6 days after electroporation of nuclease RNA, vs mock nucleofected
Experimental: Nucleofection was carried out in the presence of 2 μg/1×10^6 cells of linearized DNA encoding the CAR and one of the candidate TGFBR2 shRNAmiRs.
Cells were analyzed for TGFBR2 expression at d7, 10, and 14 post-nucleofection using the anti-TGFBR2 antibody MM0056-4F14 (Abcam), and an anti-mouse kappa light chain secondary antibody conjugated to PE (BioLegend). CAR+ cells were identified using anti-FMC63-Alx647, produced in house. The mean fluorescence intensity (MFI) of TGFBR2 signal on the CAR+ was compared to that on the CAR− cells and a percent knockdown was calculated. The frequency of CAR+ events was consistent across the different constructs, ranging from 4.9% to 6.7% (FIG. 12).
Electroporated cells were cultured for 6 days in complete X-VIVO15 medium supplemented with 30 ng/ml IL-2 prior to an analysis of editing efficiency. This was achieved by staining cells with an anti-TGFβRII antibody (Abcam clone MM0056-4F14) followed by anti-mouse IgG κ light chain conjugated to PE (BioLegend clone RMK45). Data were acquired on a Beckman-Coulter CytoFLEX-S or LX.
Mock nucleofected T cells were stained with the anti-TGFβRII antibody and the secondary antibody or the secondary antibody alone to serve as positive and negative controls, respectively, for surface detection of TGFβRII.
A further study was conducted in which the activity of CAR T cells was assessed following various alterations to the TGFβ pathway. […] In some variants, a sequence encoding a shRNAmiR was also introduced at the TRC 1-2 site in the same cassette as the CAR (positioned between the CAR stop codon and a polyA sequence). In one variant, the shRNAmiR was a TGFBR2-specific shRNAmiR (construct 72154) while in another variant a shRNAmiR that is irrelevant to TGFβ function (targeting B2M—construct 72155) was introduced. A third variant of CAR T cells was produced using construct 72155, but they were edited at the TGFBR2 locus using the TGF1-2L296 nuclease described above in order to knockout the TGFBR2 gene. CAR T cells in the TGFBR2 KO group contained 60% KO.

[2] = system: SMAD2/3; assay: Phosphorylated SMAD2/3 after TGFβ1 stimulation by flow cytometry; assay type: cell-based, human; details: BCMA CAR T cells, TGFβ1 500 ng/ml
Text: T cells electroporated with TRC1-2L.1592 were immediately transduced with AAV72112 (encoding the anti-CD19 FMC63 CAR described in Example 1 and a TGFBR2-specific shRNAmiR inserted after the CAR stop codon and before a polyA sequence) or AAV7206 (encoding a control FMC63 CAR with no RNAi). Following six days of culture, CD3-CAR+ cells were purified by FACS using methods described above. In addition, TGFβRII-cells from TGF1-2L.296-edited cultures were sorted in this manner. Sorted cells were rested in serum free medium overnight before being stimulated with 500 ng/ml of recombinant human TGFβ1, the ligand for TGFBR2 (PeproTech). Thirty minutes following TGFβ1 addition, cells were harvested and immediately prepared for staining using Phos-Flow lyse-fix buffer and Phos-Flow Fix-Perm buffer III (BD Biosciences) according to the manufacturer's instructions. Fixed cells were stained with anti-pSMAD2/3-PE (BD Biosciences) and data were acquired on a Beckman-Coulter CytoFLEX-LX. […]
BCMA CAR T cells having knock out of TGFBR2 were prepared with the TGF 1-2L.296 meganuclease and cells having knock down of TGFBR2 were prepared with the 72112 TGFBR2 shRNAmiR as described above. The respective BCMA CAR T cell groups were treated with TGFβ1 (500 ng/ml) and all cell groups were harvested and analyzed as described above. […]

B1: TGF 1-2x.5: engineered meganuclease targeting the TGFBR2 gene (SEQ ID NO: 64) (protein)
chain: MNTKYNKEFLLYLAGFVDGDGSIYACIEPDQSRKFKHTLRLYFEVGQKTQRRWFLDKLVDEIGVGYVYDRGSVSNYRLSEIKPLHNFLTQLQPFLKLKQKQANLVLKIIEQLPSAKESPDKFLEVCTWVDQIAALNDSKTRKTTSETVRAVLDSLPGSVGGLSPSQASSAASSASSSPGSGISEALRAGAGSGTGYNKEFLLYLAGFVDGDGSIFACITPSQTHKFKHRLFLRFTVGQKTQRRWFLDKLVDEIGVGYVVDSGSVSEYRLSQIKPLHNFLTQLQPFLKLKQKQANLVLKIIEQLPSAKESPDKFLEVCTWVDQIAALNDSKTRKTTSETVRAVLDSLSEKKKSSP
- TGFBR2 knockout frequency, percent of cells in the culture [1]: 38.6%

B2: TGF 1-2L.296: engineered meganuclease targeting the TGFBR2 gene (SEQ ID NO: 65) (protein)
chain: MNTKYNKEFLLYLAGFVDGDGSIYACITPKQRSKFKHSLRLRFTVGQKTQRRWFLDKLVDEIGVGYVLDGGGVSEYRLSEIKPLHNFLTQLQPFLKLKQKQANLVLKIIEQLPSAKESPDKFLEVCTWVDQIAALNDSKTRKTTSETVRAVLDSLPGSVGGLSPSQASSATSSASSSPGSGISEALRAGAGSGTGYNKEFLLYLAGFVDGDGSIYACIEPDQSRKFKHTLRLYFEVGQKTQRRWFLDKLVDEIGVGYVYDRGSVSNYRLSEIKPLHNFLTQLQPFLKLKQKQANLVLKIIEQLPSAKESPDKFLEVCTWVDQIAALNDSKTRKTTSETVRAVLDSLSEKKKSSP
- TGFBR2 knockout frequency, percent of cells in the culture [1]: 69%
- TGFBR2 KO in CAR T cell group ([1]; BCMA CAR T cells, construct 72155 plus nuclease): 60%
- pSMAD2/3 level after TGFβ1 [2]: decreased pSMAD2/3 to levels comparable to, or lower than, the untreated BCMA CAR T cell control
